According to the supplement of paper PMC9732359:
± gives the uncertainty stated by the source.

Experiment: protein stability index of a GFP-peptide fusion (yeast GPS) (PSI 1-4); higher = more stable; sorted into four equal gates, so the index is relative within each strain
Outline: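 Plasmids in a pooled yeast library fused tiled 17-residue yeast protein peptides downstream of GFP and also expressed Cherry. Mid-log cultures grown without leucine were sorted into four equal gates by GFP/Cherry fluorescence ratio. Each gate's plasmids were PCR-amplified and Illumina-sequenced, and reads were matched to strains by barcodes. The protein stability index is derived by multiplying each gate's read frequency by its gate number and summing the results.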

Sequence | protein stability index (doa10∆) | protein stability index (pdr5∆) | protein stability index (san1∆) | protein stability index (ubr1∆)
RSTMMKFLKIASLKHDN [RPN3] | 2.18 ± 0.067 | 2.43 ± 0.072 | 2.86 ± 0.089 | 3.01 ± 0.057
RSTRIRTKSQVIEEDYD [IRR1] | 2.89 ± 0.15 | 3.22 ± 0.082 | 3.42 ± 0.078 | 3.43 ± 0.11
RTPYLTSLKKIKDEIDD [SWI1] | 2.86 ± 0.16 | 2.66 ± 0.091 | 2.21 ± 0.12 | 2.62 ± 0.079
RTQPWSIMPDLYFYRNP [RPS0B] | 2.55 ± 0.051 | 2.85 ± 0.056 | 2.85 ± 0.043 | 2.6 ± 0.055
RVEPETFEIPQAHEIVI [SWI3] | 2.53 ± 0.073 | 2.84 ± 0.08 | 2.54 ± 0.079 | 2.94 ± 0.05
RVGGGGTGRSGQGAFGN [RPL4A] | 3.54 ± 0.13 | 3.52 ± 0.11 | 3.54 ± 0.066 | 3.34 ± 0.1
RVNKNAPAVELHGNAKK [FAS2] | 2.74 ± 0.071 | 3.14 ± 0.07 | 3.2 ± 0.18 | 2.93 ± 0.058
RVRHEDVETVKREIQEA [RPC53] |  | 3 ± 0.17 |  | 
RVVYLKHLEDNTLLISG [RPL6A] | 2.63 ± 0.11 | 2.62 ± 0.093 | 1.81 ± 0.17 | 2.23 ± 0.059
RWKRFTIGAIFLNHAFD [CDC53] | 2.54 ± 0.065 | 2 ± 0.069 | 2.18 ± 0.099 | 1.53 ± 0.048
RYANKRFRKAQCPIIER [RPS5] | 2.34 ± 0.16 | 2.12 ± 0.14 |  | 1.5 ± 0.054
RYDSNSGGEREIQRTML [RPT2] | 3.43 ± 0.12 | 3.62 ± 0.096 | 3.39 ± 0.12 | 3.38 ± 0.1
RYDYSDEVGRRSMLTVV [YCG1] | 2.02 ± 0.067 | 1.73 ± 0.062 | 2.91 ± 0.094 | 1.97 ± 0.05
RYNVEKVKRLMDFLEED [NSL1] | 2.08 ± 0.098 | 1.26 ± 0.16 |  | 2.25 ± 0.19
RYQHLEKITQISLLCKN [PCI8] | 1.23 ± 0.066 | 1.5 ± 0.051 | 1.25 ± 0.11 | 1.22 ± 0.048
RYRVDLLNTDHTLDPSL [RPO21] | 3.09 ± 0.072 | 2.95 ± 0.053 | 2.92 ± 0.05 | 2.9 ± 0.062
SAAATPSLNKTINGKVN [GAL11] | 2.9 ± 0.06 | 3.14 ± 0.041 | 2.81 ± 0.042 | 3.01 ± 0.046
SAAKYKDMKLLRYYKNI [NUT1] | 1.83 ± 0.059 | 2.2 ± 0.06 | 2.23 ± 0.079 | 1.99 ± 0.04
SADAPNPNNVNVQTQYR [RET1] | 2.92 ± 0.09 | 2.84 ± 0.045 | 2.77 ± 0.07 | 2.79 ± 0.05
SADPSLLIDQFSPVISQ [SWI1] | 2.85 ± 0.12 | 3.08 ± 0.1 | 2.51 ± 0.18 | 2.96 ± 0.067
SAEDEENIIQRLQAANS [CDC53] | 3.15 ± 0.081 | 3.4 ± 0.066 | 3.15 ± 0.048 | 3.02 ± 0.065
SAETLSELIRTTLDAEK [FAS1] | 2.78 ± 0.054 | 2.73 ± 0.046 | 2.84 ± 0.044 | 2.63 ± 0.053
SAGRLYACISSRPGQSG [RPS8A] | 2.81 ± 0.095 | 3.07 ± 0.093 | 3.13 ± 0.088 | 3.03 ± 0.088
SAILLSETDKRQFLHEL [RPO31] | 2.6 ± 0.069 | 2.49 ± 0.051 | 2.88 ± 0.087 | 2.63 ± 0.052
SALCILKEQELVLYDAE [BRR2] | 2.47 ± 0.16 | 2.72 ± 0.12 | 2.25 ± 0.11 | 2.52 ± 0.1
SANPKKTTITRVEPETF [SWI3] | 2.86 ± 0.065 | 3.06 ± 0.068 | 3.03 ± 0.052 | 2.95 ± 0.051

Sequence | protein stability index (doa10∆) | protein stability index (pdr5∆) | protein stability index (san1∆) | protein stability index (ubr1∆)
SAQSIASAKSVRSGVSK [YAR002W/NUP60] | 2.88 ± 0.072 | 2.93 ± 0.092 | 3 ± 0.069 | 2.96 ± 0.057
SASNTAKSTPNTNPSPL [GAL11] | 2.67 ± 0.044 | 2.87 ± 0.042 | 2.65 ± 0.038 | 2.9 ± 0.032
SASRAKNMPVIYNNIVS [RGR1] | 2.42 ± 0.064 | 2.26 ± 0.064 | 2.31 ± 0.053 | 2.34 ± 0.047
SATLPNYEDVGRFLRVP [BRR2] | 2.8 ± 0.087 | 3.1 ± 0.062 | 3.04 ± 0.048 | 3.01 ± 0.075
SAVLLETTLGEMAEKID [PRP8] | 1.12 ± 0.13 | 1.55 ± 0.098 | 1.21 ± 0.2 | 1.65 ± 0.11
SAVVSSNASRRKLINYT [RPN4] | 2.77 ± 0.11 | 2.53 ± 0.14 | 2.55 ± 0.069 | 3.26 ± 0.14
SCEVEEIGLLGGRYVYP [SNU114] | 3.27 ± 0.092 | 3.04 ± 0.066 | 2.85 ± 0.065 | 2.8 ± 0.06
SCGYPAAKTRSYNWGAK [RPL37A] | 2.21 ± 0.29 | 3.34 ± 0.12 | 3.1 ± 0.085 | 3.31 ± 0.12
SCLTFFQALDSEETQFK [ITC1] | 2.73 ± 0.1 | 3.49 ± 0.13 | 2.7 ± 0.11 | 3.17 ± 0.15
SCQGNVIYRNSLYKVSF [YMR129W/POM152] | 2.54 ± 0.064 | 2.76 ± 0.068 | 2.56 ± 0.064 | 2.71 ± 0.094
SCRNPEHTDVIDELIDT [YIL149C/MLP2] | 2.68 ± 0.054 | 2.76 ± 0.061 | 2.58 ± 0.047 | 2.58 ± 0.035
SCTKCPQIVVPDAQNEL [DIS3] | 2.17 ± 0.05 | 2.42 ± 0.04 | 2.48 ± 0.057 | 2.34 ± 0.059
SDAAKEPPGSNTSFSFT [YOR098C/NUP1] | 1.58 ± 0.046 | 1.96 ± 0.048 | 2.33 ± 0.053 | 1.91 ± 0.045
SDAKEQHQSLSRSSSKN [ESC2] | 2.85 ± 0.14 | 3.21 ± 0.14 | 3.26 ± 0.074 | 3.27 ± 0.11
SDAVMAEHSQNKIDQSL [YJL041W/NSP1] | 3.08 ± 0.064 | 3.18 ± 0.044 | 3.08 ± 0.052 | 3.07 ± 0.056
SDDAAQFMKRFPMPYEN [ECM29] | 2.96 ± 0.068 | 3 ± 0.14 | 2.9 ± 0.082 | 
SDEAIIPVNKRRGAHGS [SIR3] | 3.03 ± 0.15 | 3.13 ± 0.13 | 3.04 ± 0.13 | 2.93 ± 0.18
SDKAQLNVVMKNLERLR [SMC4] | 3.28 ± 0.099 | 3.46 ± 0.15 | 3.13 ± 0.11 | 2.72 ± 0.28
SDLRVLSGSISERIVDC [FAS1] | 2.95 ± 0.14 | 3.45 ± 0.15 | 3.41 ± 0.087 | 3.26 ± 0.098
SDMQHIERLLKDLVTEN [PRE4] | 1.63 ± 0.14 | 2.61 ± 0.13 | 2.31 ± 0.17 | 2.97 ± 0.15
SDSEIPPLLVYKWTQGI [PRP8] | 2.3 ± 0.056 | 2.36 ± 0.057 | 2.26 ± 0.068 | 2.07 ± 0.074
SEEERKSSPISNEAAKP [YOR098C/NUP1] | 2.94 ± 0.099 | 2.97 ± 0.099 | 3.07 ± 0.069 | 3.21 ± 0.071
SEFDSRVKAMEVDEKPT [RPT5] | 2.77 ± 0.11 | 2.76 ± 0.089 | 3.08 ± 0.14 | 2.97 ± 0.062
SEIIDTNTSKQFQKARN [SRB8] | 2.71 ± 0.12 | 3.01 ± 0.063 | 3.16 ± 0.056 | 2.92 ± 0.095
SEKGLLSATQFTQPALT [FAS1] | 2.44 ± 0.061 | 2.65 ± 0.047 | 2.73 ± 0.039 | 2.57 ± 0.038
SEKRLDHFIHLRNLHMK [SNF12] | 2.75 ± 0.051 | 2.73 ± 0.043 | 2.74 ± 0.052 | 2.62 ± 0.037
